Laboratory results published in US20260201015A1 (published 2026).
Each block holds one binder with its values, some of them ahead of it.

Legend:
[1] = biological target: T1, parathyroid hormone (PTH) peptide (UniProt P01270 32-65, TAMRA label in FP assays (PTH-TAMRA), site not stated; biotinylated in yeast display); experiment: Split NanoBiT titration
T1 peptide: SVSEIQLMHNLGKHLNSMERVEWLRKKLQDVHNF

secretin (SCT) = biological target: T2, secretin (SCT) (UniProt P09683 28-54, fluorescently labeled (FAM or TAMRA) in FP assays, site not stated); experiment: FP
T2 peptide: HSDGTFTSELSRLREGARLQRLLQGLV

glucagon (GCG) = glucagon (GCG) (UniProt P01275 53-81, fluorescently labeled (FAM or TAMRA) in FP assays, site not stated; biotinylated in yeast display); experiment: FP
glucagon (GCG), sequence (P01275 53-81): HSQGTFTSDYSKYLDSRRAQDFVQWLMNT

Kd [1]: > 1000 nM
B1: parametrically designed PTH binder (SEQ ID NO: 1) (designed binder)
chain: SQELIEELIKLAKELAEIKDEEERRKIKRELERLAEELKEAPASSLLRALALLVIALALIQAAESEEERERARELLERLEELLRELEKQITDERFKEILRELEELAKELKKQL

Kd (secretin (SCT)): 1.42 nM
Kd (glucagon (GCG)): < 0.5 nM
B2: GCG_C09 (RF Diffusion/Partial diffusion), partially diffused GCG binder, SEQ ID NO: 8 (designed binder)
chain: SMEKLAEIMQEIIEAYQEVKDAFFKFIKAVHEGAPEEELKKYLEKMKEALEKMKELLERLEKEAKKVIEENKDKKLELKVLLMLRLAYLLLKVSIELTKIAAEKLGDKELVEELEKESKEVEKKIKELEERIKKLLEEVDDEELKEAYKEVEEMEKEAEKFLEKMRKV
